Measurements from patent publication US20150353628A1 (published 2015).

How the values were obtained:
[1] = molecular target: T1, pertussis toxin protein (Bordetella pertussis, UniProt P04977 35-269; P04978 28-226; P04979 29-227; P0A3R5 43-152; P04981 35-133); assay: competition ELISA
T1 construct: also called PTx; PT

[2] = molecular target: T1, pertussis toxin protein; assay: ELISA, PTx coated, anti-mouse-HRP secondary
Text: Specifically, the pertussis toxin protein was used for coating while anti-mouse-HRP or anti-human Fc-HRP were used as secondary antibodies. TMB(3,3′,5,5′-Tetramethylbenzidine) was used as substrate for the assay.

[3] = molecular target: T1, pertussis toxin protein; assay: pertussis toxin competition assay (ELISA read-out)

B1: murine m1B7 antibody (antibody, V domains shown)
VH: QVQLQQPGSELVRPGASVKLSCKASGYKFTSYWMHWVKQRPGQGLEWIGNIFPGSGSTNYDEKFNSKATLTVDTSSNTAYMQLSSLTSEDSAVYYCTRWLSGAYFDYWGQGTTLTVSS
VL: QIVLTQSPALMSASPGEKVTMTCSASSSVSFMYWYQQKPRSSPKPWIYLTSNLPSGVPARFSGSGSGTSYSLTISSMEAEDAATYYCQQWSSHPPTFGSGTKLEIK
notes: also called parental murine 1B7 antibody; mouse 1B7
- Kd [1]: 0.4 nM
- EC50 [2]: 0.19 nM
- Kd [3]: 0.15 nM

B2: chimeric 1B7 antibody (antibody, V domains shown)
VH: QVQLQQPGSELVRPGASVKLSCKASGYKFTSYWMHWVKQRPGQGLEWIGNIFPGSGSTNYDEKFNSKATLTVDTSSNTAYMQLSSLTSEDSAVYYCTRWLSGAYFDYWGQGTTLTVSS
VL: QIVLTQSPALMSASPGEKVTMTCSASSSVSFMYWYQQKPRSSPKPWIYLTSNLPSGVPARFSGSGSGTSYSLTISSMEAEDAATYYCQQWSSHPPTFGSGTKLEIK
notes: also called ch1B7
- Kd [1]: 0.5 nM

B3: murine m11E6 antibody (antibody, V domains shown)
VH: EVKVVESGGGLVQPGGSLRLSCTTSGFTFTDYYVSWVRQPPGKALEWLGFIRNKVNGYTTEFSSSVKGRFTISRDNSQSILYLQMNTLRVEDSATYYCARVSYYGRGWYFDYWGQGTTLTVSS
VL: DIVMTQSTSSLSASLGDRVTISCRASQDIDNYLSWFQQKPDGTVKLLIYYTSRLHSGVPSRFSGSGSGTDYSLTISSLDQEDIATYFCQQGNTFPWTFGGGTKLEIK
notes: also called parental murine 11E6 antibody; mouse 11E6
- Kd [1]: 5 nM
- EC50 [2]: 2.7 nM

B4: chimeric 11E6 antibody (antibody, V domains shown)
VH: EVKVVESGGGLVQPGGSLRLSCTTSGFTFTDYYVSWVRQPPGKALEWLGFIRNKVNGYTTEFSSSVKGRFTISRDNSQSILYLQMNTLRVEDSATYYCARVSYYGRGWYFDYWGQGTTLTVSS
VL: DIVMTQSTSSLSASLGDRVTISCRASQDIDNYLSWFQQKPDGTVKLLIYYTSRLHSGVPSRFSGSGSGTDYSLTISSLDQEDIATYFCQQGNTFPWTFGGGTKLEIK
notes: also called ch11E6
- Kd [1]: 5 nM
